Results from article doi:10.1101/2022.11.21.517443 (bioRxiv, 2022).
Where “and” joins values, the source holds several entries; their conditions need not be identical. Equal entries are not always repeated.

Target: the molecule itself
Test: single-particle cryo-EM 2D classification

B1: Escherichia coli glutamine synthetase (enzyme, UniProt P0A9C5 1-469, looked up)
chain: MSAEHVLTMLNEHEVKFVDLRFTDTKGKEQHVTIPAHQVNAEFFEEGKMFDGSSIGGWKGINESDMVLMPDASTAVIDPFFADSTLIIRCDILEPGTLQGYDRDPRSIAKRAEDYLRSTGIADTVLFGPEPEFFLFDDIRFGSSISGSHVAIDDIEGAWNSSTQYEGGNKGHRPAVKGGYFPVPPVDSAQDIRSEMCLVMEQMGLVVEAHHHEVATAGQNEVATRFNTMTKKADEIQIYKYVVHNVAHRFGKTATFMPKPMFGDNGSGMHCHMSLSKNGVNLFAGDKYAGLSEQALYYIGGVIKHAKAINALANPTTNSYKRLVPGYEAPVMLAYSARNRSASIRIPVVSSPKARRIEVRFPDPAANPYLCFAALLMAGLDGIKNKIHPGEAMDKNLYDLPPEEAKEIPQVAGSLEEALNELDLDREFLKAGGVFTDEAIDAYIALRREEDDRVRMTPHPVEFELYYSV
stoichiometry N: 10 subunits and 8 subunits
